Results from US20150031601A1.

Target: serum proteins
Test: 90% serum, 30 kDa ultrafiltration, HPLC

| Protein binding (%) | Binder |
| --- | --- |
| 93 | GFCWYVCVYRNGVRGCYRRCN [SEQ ID NO: 38] |
| 87 | GFCWHVCVYKNGKRSCYRRCN [SEQ ID NO: 390] |
| 99.5 | GFCWYVCVYRNGVRVCYRRCN [antimicrobial peptide of SEQ ID NO: 2 (the parent antimicrobial peptide)] |
| 92 | GFCWYVCARRNGLRSCYRRCN [SEQ ID NO: 453] |
| 98 | GFCWYVCVYRNGVRTCYRRCN [SEQ ID NO: 45] |
| 99 | GFCWYVCVYRNGPRVCYRRCN [SEQ ID NO: 33] |
| 76 | GFCAHVCVKRNGARVCYRRCN [SEQ ID NO: 362] |
| 95 | GFCWKVCARRNGARSCYRRCN [SEQ ID NO: 504] |
| 99 | GFCWYVCVYRNGGRVCYRRCN [SEQ ID NO: 30] |
| 93 | GFCWYVCVKRNGVRSCYRRCN [SEQ ID NO: 87] |
| 98 | GFCFRVCVKRNGVRKCYRRCN [SEQ ID NO: 381] |
| 69 | GFCWRVCAYSNGKRVCYRRCN [SEQ ID NO: 425] |
| 81 | GFCGRVCVYRNGKRACYRRCN [SEQ ID NO: 386] |
| 85 | GFCWYVCVYRNGVRSCYRRCN [SEQ ID NO: 44] |
| 88 | GFCWYVCVYRNGVRVCHRRCN [SEQ ID NO: 46] |
| 72 | GFCGRVCVYRNGVRVCYRRCN [SEQ ID NO: 61] |

| Protein binding (%) | Binder |
| --- | --- |
| 98 | GFCWYVCHYRNGVRVCYRRCN [SEQ ID NO: 23] |
| 87 | GFCWRVCVYSNGKRSCHRRCN [SEQ ID NO: 509] |
| 85 | GFCWYVCSYRNGVRVCYRRCN [SEQ ID NO: 24] |
| 95 | GFCWRVCSYRNGVRKCYRRCN [SEQ ID NO: 331] |
| 89 | GFCAYVCVYRNGVRVCYRRCN [SEQ ID NO: 4] |
| 40 | GFCWRACVYRNGVRACYRRCN [SEQ ID NO: 319] |
| 77 | GFCGRVCVYKNGKRACYRRCN [SEQ ID NO: 493] |
| 74 | GFCWYACAYRNGVRACYRRCN [SEQ ID NO: 343] |
| 85 | GFCWRVCASRNGLRVCYRRCN [SEQ ID NO: 435] |
| 80 | RFCWNVCVYRNGVRVCHRHCN [SEQ ID NO: 359] |
| 60 | GFCWYVCVYRNGSRVCYRRCN [SEQ ID NO: 36] |
| 98.5 | GFCWYVCAYRNGVRVCYRRCN [SEQ ID NO: 21] |
| 68 | GFCWYVCVYRNGVRVCNRRCN [SEQ ID NO: 48] |
| 86 | GACWYVCVYRNGVRVCYRRCN [SEQ ID NO: 3] |
| 87 | GFCWKVCVYRNGVRVCSRRCN [SEQ ID NO: 68] |
| 98 | GFCWYACAKRNGLRVCYRRCN [SEQ ID NO: 450] |

The remaining lines, values behind:

| Binder | Protein binding (%) |
| --- | --- |
| GFCWHVCSKRNGLRVCYRRCN [SEQ ID NO: 396] | 92 |
| GFCWRACVYRNGVRSCYRRCN [SEQ ID NO: 320] | 88 |
| GFCWYVCVYRNGVRHCYRRCN [SEQ ID NO: 39] | 98 |
| GFCWRVCHYRNSVRVCYRRCN [SEQ ID NO: 327] | 98 |
| GFCWRVCVYRNGVRVCHRRCN [SEQ ID NO: 76] | 92 |
| GFCWYACVYRNGKRVCYRRCN [SEQ ID NO: 80] | 96 |
| GFCWHVCARRNGARVCYRRCN [SEQ ID NO: 394] | 80 |
| GFCSYVCVYRNGVRVCYRRCN [SEQ ID NO: 7] | 68 |
| GFCARVCAKRNGVRVCYRRCN [SEQ ID NO: 363] | 80 |
| GFCWRACAYRNGKRVCYRRCN [SEQ ID NO: 417] | 95 |
| GFCWYVCVKRNGARKCHRRCN [SEQ ID NO: 454] | 90 |
| GFCWYVCVYRNGARVCYRRCN [SEQ ID NO: 29] | 99 |
| GFCGHVCVYRNGVRVCYRRCN [SEQ ID NO: 60] | 64 |
| GFCWYVCVYRNGVRVCYRRCS [SEQ ID NO: 53] | 99 |
| GFCWRVCVYRNGVRSCHRRCN [SEQ ID NO: 316] | 90 |
| GFCWYVCVYRNGVRVCYRRCT [SEQ ID NO: 54] | 99 |
| GFCWYVCVYRNGVRVCKRRCN [SEQ ID NO: 47] | 89 |
| GFCWRVCHYSNGKRVCYRRCN [SEQ ID NO: 439] | 92 |

| Binder | Protein binding (%) |
| --- | --- |
| GFCWYVCVYRNGVRQCYRRCN [SEQ ID NO: 42] | 96 |
| GFCWYVCVYRNGVRNCYRRCN [SEQ ID NO: 41] | 97 |
| GFCWYACVYRNGKRACYRRCN [SEQ ID NO: 340] | 98 |
| GFCWNVCAYRNGKRACYRRCN [SEQ ID NO: 411] | 86 |
| GFCWYTCVKRNGLRVCYRRCN [SEQ ID NO: 346] | 86 |
| GFCWRACAYRNGVRACYRRCN [SEQ ID NO: 418] | 92 |
| GFCWRACVYRNGVRVCYRRCN [SEQ ID NO: 72] | 97 |
| GFCWRVCVRRNGVRVCHRRCN [SEQ ID NO: 335] | 95 |
| GFCWNACARRNGVRVCYRRCN [SEQ ID NO: 407] | 88 |
| GFCFRSCVRRNGVRVCYRRCN [SEQ ID NO: 377] | 65 |
| GFCWRVCAYKNGKRSCYRRCN [SEQ ID NO: 523] | 90 |
| GFCWRVCHYRNGVRVCYRRCN [SEQ ID NO: 74] | 99 |
| GFCWYVCVRRNGVRVCYRRCN [SEQ ID NO: 28] | 92 |
| GFCFYVCVYRNGVRVCRRRCN [SEQ ID NO: 56] | 94 |
| GFCWYVCVYKNGVRVCHRRCN [SEQ ID NO: 89] | 90 |
| GFCWYVCYYRNGVRVCYRRCN [SEQ ID NO: 25] | 98 |
| GFCWNVCVYRNGVRVCHRRCN [NZ17074 (the antimicrobial peptide of SEQ ID NO: 70)] | 79 |
